Where a chain is given by its changes, count along the chain named. Names and notes keep the numbering of the source.

The labels stand for the following.
T1: catalytic domain of MMP-9 (cdMMP-9) (human, UniProt P14780 107-443, limits assumed)
T1 sequence: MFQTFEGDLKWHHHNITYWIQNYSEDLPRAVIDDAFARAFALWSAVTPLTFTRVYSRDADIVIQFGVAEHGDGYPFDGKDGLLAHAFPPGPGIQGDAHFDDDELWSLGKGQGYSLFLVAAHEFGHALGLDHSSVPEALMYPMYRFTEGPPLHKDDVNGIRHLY

B1: Fab 32D1 (Fab, V domains shown)
VH: EVQLVESGGGLVQPGGSLRLSCAASGFNLYYSYMHWVRQAPGKGLEWVASISPYSGYTYYADSVKGRFTISADTSKNTAYLQMNSLRAEDTAVYYCARMSLHRNFNQQGRSRLLGRMPRTYGMDYWGQGTLVTVSS
VL: DIQMTQSPSSLSASVGDRVTITCRASQSVSSAVAWYQQKPGKAPKLLIYSASSLYSGVPSRFSGSRSGTDFTLTISSLQPEDFATYYCQQYYSLITFGQGTKVEIKR
notes: not shown: His tag at the C-terminus of the heavy chain
B2: Fab 33C4 (Fab, V domains shown)
VH: EVQLVESGGGLVQPGGSLRLSCAASGFNLYSSSMHWVRQAPGKGLEWVASIYPYYGYTYYADSVKGRFTISADTSKNTAYLQMNSLRAEDTAVYYCARPTTSRVNKKLFRVSVLHPGSYGMDYWGQGTLVTVSS
VL: B1 VL with Y91A, Y92S, S93Y
notes: also called R2C3; not shown: His tag at the C-terminus of the heavy chain
B3: Fab 2B5 (Fab, V domains shown)
VH: EVQLVESGGGLVQPGGSLRLSCAASGFNLSYSSMHWVRQAPGKGLEWVASIYPYSGYTYYADSVKGRFTISADTSKNTAYLQMNSLRAEDTAVYYCARIGVNAWAVKMSQRMLATRGSGWYVMDYWGQGTLVTVSS
VL: DIQMTQSPSSLSASVGDRVTITCRASQSVSSAVAWYQQKPGKAPKLLIYSASSLYSGVPSRFSGSRSGTDFTLTISSLQPEDFATYYCQQSSSYPYSPITFGQGTKVEIKR
notes: as for B1
B4: Fab 3F3 (Fab, V domains shown)
VH: EVQLVESGGGLVQPGGSLRLSCAASGFNIYSSSMHWVRQAPGKGLEWVAYIYPYSGYTYYADSVKGRFTISADTSKNTAYLQMNSLRAEDTAVYYCARLYNGWLMVEGIGSAREGPTWYAMDYWGQGTLVTVSS
VL: B3 VL with S91G, S92G, S93V, P95A, Y96A, S97H, I99F
notes: also called R2C13; not shown: His tag at the C-terminus of the heavy chain
B5: Fab 3G9 (Fab, V domains shown)
VH: EVQLVESGGGLVQPGGSLRLSCAASGFNIYYSSIHWVRQAPGKGLEWVASIYSYSGYTYYADSVKGRFTISADTSKNTAYLQMNSLRAEDTAVYYCARATNEKFRRKSLQVRLLMRSWLAYAMDYWGQGTLVTVSS
VL: B3 VL with S91A, S93Y, Y94A, P95A, Y96S, S97A, P98L
notes: as for B1
B6: Fab 3E9 (Fab, V domains shown)
VH: EVQLVESGGGLVQPGGSLRLSCAASGFNLYYSSMHWVRQAPGKGLEWVASIYPSYGSTYYADSVKGRFTISADTSKNTAYLQMNSLRAEDTAVYYCARNGRYPGFLKRAHKRLLNFKAYVMDYWGQGTLVTVSS
VL: DIQMTQSPSSLSASVGDRVTITCRASQSVSSAVAWYQQKPGKAPKLLIYSASSLYSGVPSRFSGSRSGTDFTLTISSLQPEDFATYYCQQGSWYLITFGQGTKVEIKR
notes: as for B1
B7: Fab 3E2 (Fab, V domains shown)
VH: EVQLVESGGGLVQPGGSLRLSCAASGFNIYYYSIHWVRQAPGKGLEWVASIYPYSSYTYYADSVKGRFTISADTSKNTAYLQMNSLRAEDTAVYYCARGIKGLVFTGSQMKMLRRGNYNWYVMDYWGQGTLVTVSS
VL: B6 VL with G91S, W93Y, Y94S
notes: as for B1
B8: Fab 32C2 (Fab, V domains shown)
VH: EVQLVESGGGLVQPGGSLRLSCAASGFNLYYYSMHWVRQAPGKGLEWVAYISPYSSSTYYADSVKGRFTISADTSKNTAYLQMNSLRAEDTAVYYCARSQHAKKSTIIRMLEHQSRSGMQYVMDYWGQGTLVTVSS
VL: B6 VL with G91S, W93Y, Y94S
notes: as for B1
B9: Fab 33D4 (Fab, V domains shown)
VH: EVQLVESGGGLVQPGGSLRLSCAASGFNIYYSSMHWVRQAPGKGLEWVASISPYSGSTYYADSVKGRFTISADTSKNTAYLQMNSLRAEDTAVYYCARSVHMKLSNKILSGWSWNNSFYAMDYWGQGTLVTVSS
VL: B6 VL with G91S, W93Y, Y94S
notes: also called R2C15; not shown: His tag at the C-terminus of the heavy chain
B10: Fab 32E10 (Fab, V domains shown)
VH: EVQLVESGGGLVQPGGSLRLSCAASGFNIYSYSMHWVRQAPGKGLEWVAYIYPYSGYTYYADSVKGRFTISADTSKNTAYLQMNSLRAEDTAVYYCARLDRDRYIHVGRAGNTYSNYYYVMDYWGQGTLVTVSS
VL: DIQMTQSPSSLSASVGDRVTITCRASQSVSSAVAWYQQKPGKAPKLLIYSASSLYSGVPSRFSGSRSGTDFTLTISSLQPEDFATYYCQQPWGAASLITFGQGTKVEIKR
notes: also called R2C19; not shown: His tag at the C-terminus of the heavy chain
B11: Fab 33F5 (Fab, V domains shown)
VH: EVQLVESGGGLVQPGGSLRLSCAASGFNLYYSYMHWVRQAPGKGLEWVAYISPSSSSTYYADSVKGRFTISADTSKNTAYLQMNSLRAEDTAVYYCARNFRVESAGRPGKTVLRKDGKYAMDYWGQGTLVTVSS
VL: B6 VL with G91S, W93V, Y94G, I96F
notes: also called R2C20; not shown: His tag at the C-terminus of the heavy chain
B12: Fab 3B2 (Fab, V domains shown)
VH: EVQLVESGGGLVQPGGSLRLSCAASGFNFSSSSIHWVRQAPGKGLEWVASIYSSYSSTYYADSVKGRFTISADTSKNTAYLQMNSLRAEDTAVYYCARSTAATTLSRMSRSYWTIQLPYGMDYWGQGTLVTVSS
VL: B6 VL with G91S, W93Y, Y94S
notes: also called R2C1; not shown: His tag at the C-terminus of the heavy chain
B13: Fab 32C11 (Fab, V domains shown)
VH: EVQLVESGGGLVQPGGSLRLSCAASGFNLYYSSIHWVRQAPGKGLEWVASISSYSSYTYYADSVKGRFTISADTSKNTAYLQMNSLRAEDTAVYYCAREIHMLSRQARYLRDGRRPRGSMYVMDYWGQGTLVTVSS
VL: B6 VL with G91Y, S92G, W93A, Y94G
notes: also called R3C7; not shown: His tag at the C-terminus of the heavy chain
B14: MMP-14 catalytic domain mutant F198A (enzyme)
chain: not shown
B15: MMP-14 catalytic domain mutant F204A (enzyme)
chain: not shown
B16: MMP-14 catalytic domain mutant T190A (enzyme)
chain: not shown
B17: MMP-14 catalytic domain mutant Y203A (enzyme)
chain: not shown
B18: MMP-14 catalytic domain mutant N231A (enzyme)
chain: not shown

The first test concerns the target T2, catalytic domain of MMP-14 (cdMMP-14) (human, UniProt P50281 114-287, limits assumed, biotinylated (Sulfo-NHS-LC-Biotin) where immobilised via streptavidin). Briefly: cell-based or functional assay.
For the molecule B1, the “IC50 by FRET Assay” value is 4200 nM.

Regarding B2, the “IC50 by FRET Assay” value is 4600 nM.

For B3, the “IC50 by FRET Assay” value worked out at 240 nM.

For B4, the “IC50 by FRET Assay” value is 970 nM.

On to B5, for which the “IC50 by FRET Assay” value was determined as 390 nM.

For the molecule B6, the “IC50 by FRET Assay” value was 6000 nM.

With B7, the “IC50 by FRET Assay” value was 42 nM.

As for B8, the “IC50 by FRET Assay” value came out at 8000 nM.

On to B9, for which the “IC50 by FRET Assay” value worked out at 3900 nM.

Another test addresses T2, catalytic domain of MMP-14 (cdMMP-14). Briefly: cell-based or functional assay. This is another data set of the same source.
For B2, the “Inhibition potency (FRET IC50)” value came out at 4600 nM.

For the molecule B4, the “Inhibition potency (FRET IC50)” value is 970 nM.

As for B9, the “Inhibition potency (FRET IC50)” value was 3900 nM.

A further test shares this target. The test can be described thus: ELISA, Fab titrated on immobilised MMP-14 catalytic domain, anti-Fab-HRP. For orientation: In an ELISA, binding on a coated surface is turned into a signal by an enzyme label.
Method: Bound Fabs were detected using the anti-Fab-HRP conjugate. The half-maximal effective concentration (EC₅₀) was calculated from a four-parametric logistic curve-fitting analysis.
In turn, B1 showed an EC50 of 350 nM.

Take B2: the response was half-maximal at 220 nM (EC50).

Consider B10, for which the EC50 is 9.7 nM.

Turning to B3, the response was half-maximal at 24 nM (EC50).

B4 had an EC50 of 34 nM.

B5: the EC50 is 160 nM.

For B6, the EC50 is 51 nM.

With B11, the EC50 was determined as 1600 nM.

The molecule B7 displayed an EC50 of 47 nM.

B12 yielded an EC50 of 590 nM.

Molecule B13 gave an EC50 of 29 nM.

As to B8, the EC50 was determined as 150 nM.

The molecule B9 yielded an EC50 of 460 nM.

A further test concerns the target T3, Fab 3A2.
T3 construct: also called R3C9; not shown: His tag at the C-terminus of the heavy chain
The test can be described thus: competitive ELISA: 10 nM Fab 3A2 pre-incubated with soluble MMP-14 (WT or mutant), then captured on immobilised wild-type MMP-14; anti-Fab-HRP.
As to B14, the “IC50 (read off the curve)” value is roughly 100 nM.

For B15, the binding result is “binds”.

Take B16: the “IC50 (read off the curve)” value is roughly 100 nM.

On to B17, for which the “IC50 (read off the curve)” value is roughly 100 nM.

As for B18, the binding result is “binds”.

The target of the next test is T1, catalytic domain of MMP-9 (cdMMP-9). The test can be described thus: ELISA, purified Fab at 50, 100, 250 and 500 nM on immobilised MMP catalytic domain, anti-Fab-HRP, OD450.
As for B3, the binding result is given as “no binding (tested: 500 nM)”.

On to B7, for which the binding result is “no binding (tested: 500 nM)”.

A further test deals with catalytic domain of MMP-2 (human, UniProt P08253 115-449, limits assumed, biotinylated (Sulfo-NHS-LC-Biotin)). Described as above.
catalytic domain of MMP-2, sequence (P08253 other isoform, or with tags, fused parts or gaps limits assumed): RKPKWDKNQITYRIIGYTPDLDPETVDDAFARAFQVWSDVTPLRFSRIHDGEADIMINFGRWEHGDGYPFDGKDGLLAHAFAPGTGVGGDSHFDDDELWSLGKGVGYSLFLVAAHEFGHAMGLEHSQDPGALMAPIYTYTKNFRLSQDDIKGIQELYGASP
Take B3: the binding result was “no binding (tested: 500 nM)”.

Consider B7, for which the binding result is “no binding (tested: 500 nM)”.

A further test deals with T2, catalytic domain of MMP-14 (cdMMP-14). Briefly: ELISA, Fab titrated on immobilised biotin-cdMMP-14, anti-Fab-HRP.
With B2, the response was half-maximal at 220 nM (EC50).

Turning to B10, the EC50 came to 9.7 nM.

B4: the EC50 came to 34 nM.

Regarding B11, the response was half-maximal at 1600 nM (EC50).

Molecule B12 returned an EC50 of 590 nM.

Regarding B13, the EC50 came to 29 nM.

Molecule B9 had an EC50 of 460 nM.

The term EC50 denotes the concentration giving half of the maximal effect. Low readings indicate greater potency, high ones weaker potency.

Values taken from patent publication US20190185581A1 (University of California, published 2019).
